# Numbering of substitutions follows the chain as printed.
# T1: cynomolgus DLL4 expressed on CHO cells (cynomolgus, UniProt Q9NR61 27-685 (human entry))
# T1 construct: also called cDLL4; CHO-cDLL4
# T1 chain: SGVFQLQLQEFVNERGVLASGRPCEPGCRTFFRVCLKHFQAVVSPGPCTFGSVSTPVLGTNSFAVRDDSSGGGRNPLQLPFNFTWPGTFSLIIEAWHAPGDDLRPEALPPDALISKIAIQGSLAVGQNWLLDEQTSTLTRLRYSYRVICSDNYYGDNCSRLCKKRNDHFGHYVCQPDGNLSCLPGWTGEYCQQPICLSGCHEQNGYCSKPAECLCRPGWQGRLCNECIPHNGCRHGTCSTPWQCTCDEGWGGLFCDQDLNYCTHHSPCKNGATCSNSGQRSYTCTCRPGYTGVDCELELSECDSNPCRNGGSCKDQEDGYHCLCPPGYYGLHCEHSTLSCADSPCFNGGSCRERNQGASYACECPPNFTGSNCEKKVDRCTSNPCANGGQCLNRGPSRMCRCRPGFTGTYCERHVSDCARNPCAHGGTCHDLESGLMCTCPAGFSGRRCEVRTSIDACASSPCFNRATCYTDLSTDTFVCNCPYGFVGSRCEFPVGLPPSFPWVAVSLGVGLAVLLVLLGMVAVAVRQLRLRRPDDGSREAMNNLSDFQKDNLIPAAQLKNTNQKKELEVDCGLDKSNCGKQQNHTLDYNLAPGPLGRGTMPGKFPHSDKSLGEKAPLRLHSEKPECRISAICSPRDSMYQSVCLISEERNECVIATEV
# B1: DLLBII101G08 (VHH, not shown: small tags and cut ends)
# VHH: EVQLVESGGGLVQAGGSLRLSCAASGRTFSSYAMAWFRQAPGKEREFVAAIRWSGGTAYYADSVQGRFTISRDNAKNTVYLQMNSLKPEDTAVYYCANRAADTRLGPYEYDYWGQGTQVTVSS
# notes: parent VHH; also called 101G08 (wt); 101G8
# B2: DLLBII129E11 (VHH, not shown: small tags and cut ends)
# VHH: B1 VHH with F37Y, F47Y, A101P, G106R, E109L
# B3: DLLBII129B05 (VHH, not shown: small tags and cut ends)
# VHH: B1 VHH with F37Y, F47Y, A101P, G106A, Y112H
# B4: DLLBII129D08 (VHH, not shown: small tags and cut ends)
# VHH: B1 VHH with F37Y, F47Y, A101P, G106E, E109L
# B5: DLLBII015 (VHH, not shown: small tags and cut ends)
# VHH: EVQLVESGGGLVQPGGSLRLSCAASGFTIGSYDMSWVRRSPGKGPEWVSAINSGGGSTYYADYVKGRFTISRDNAKNTLYLQMNSLKPEDTAVYYCAADRYIWARQGEYWGAYAYDYWGQGTQVTVSS
# B6: DLLBII136C07 (VHH, not shown: small tags and cut ends)
# VHH: B5 VHH with I29F, A50S, A114E
# B7: DLLBII133A09 (VHH, not shown: small tags and cut ends)
# VHH: B5 VHH with I29F
# B8: DLLBII133G05 (VHH, not shown: small tags and cut ends)
# VHH: B5 VHH with I29F, A61T
# Target: T1, cynomolgus DLL4 expressed on CHO cells
# Test: FACS on CHO-cDLL4 cells
row,Binder,EC50
1,B1,11.2 nM
2,B2,4.2 nM
3,B3,3.9 nM
4,B4,3.8 nM
5,B5,5.1 nM
6,B6,3.5 nM
7,B7,2.3 nM
8,B8,2.7 nM

# Target: T2, mouse DLL4 expressed on CHO cells (mouse, UniProt Q9JI71 27-686)
# T2 construct: whole, on cells; also called mDLL4; CHO-mDLL4
# Test: FACS on CHO-mDLL4 cells
# T2 sequence (Q9JI71 27-686): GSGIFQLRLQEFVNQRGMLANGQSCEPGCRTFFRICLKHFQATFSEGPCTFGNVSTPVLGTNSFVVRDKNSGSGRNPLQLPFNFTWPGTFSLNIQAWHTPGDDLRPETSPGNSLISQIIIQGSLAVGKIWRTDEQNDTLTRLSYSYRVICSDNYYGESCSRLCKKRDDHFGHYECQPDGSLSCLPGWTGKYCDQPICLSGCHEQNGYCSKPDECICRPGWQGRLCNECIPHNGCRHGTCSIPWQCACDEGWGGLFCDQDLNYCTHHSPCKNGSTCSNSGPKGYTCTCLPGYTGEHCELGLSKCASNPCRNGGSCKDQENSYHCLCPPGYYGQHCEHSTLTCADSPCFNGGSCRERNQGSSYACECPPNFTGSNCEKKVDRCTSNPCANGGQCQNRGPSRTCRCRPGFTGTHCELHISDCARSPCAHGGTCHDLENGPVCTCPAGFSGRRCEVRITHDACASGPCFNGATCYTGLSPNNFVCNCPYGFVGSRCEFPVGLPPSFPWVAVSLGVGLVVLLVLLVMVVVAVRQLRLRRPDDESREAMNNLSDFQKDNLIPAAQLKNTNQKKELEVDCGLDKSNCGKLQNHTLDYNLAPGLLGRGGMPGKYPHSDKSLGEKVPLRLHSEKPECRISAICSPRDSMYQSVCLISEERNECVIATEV
row,Binder,EC50
1,B2,4.1 nM
2,B3,3.9 nM
3,B4,3.7 nM
4,B5,7 nM
5,B6,8.3 nM
6,B7,1.7 nM
7,B8,2.8 nM

# Target: T3, recombinant mouse DLL4 (C-terminally His-tagged extracellular domain, R&D Systems) (mouse, UniProt Q9JI71 27-532)
# T3 construct: extracellular domain; also called rmDLL4; mDLL4
# Test: SPR (Biacore), rmDLL4
# T3 sequence (Q9JI71 27-532): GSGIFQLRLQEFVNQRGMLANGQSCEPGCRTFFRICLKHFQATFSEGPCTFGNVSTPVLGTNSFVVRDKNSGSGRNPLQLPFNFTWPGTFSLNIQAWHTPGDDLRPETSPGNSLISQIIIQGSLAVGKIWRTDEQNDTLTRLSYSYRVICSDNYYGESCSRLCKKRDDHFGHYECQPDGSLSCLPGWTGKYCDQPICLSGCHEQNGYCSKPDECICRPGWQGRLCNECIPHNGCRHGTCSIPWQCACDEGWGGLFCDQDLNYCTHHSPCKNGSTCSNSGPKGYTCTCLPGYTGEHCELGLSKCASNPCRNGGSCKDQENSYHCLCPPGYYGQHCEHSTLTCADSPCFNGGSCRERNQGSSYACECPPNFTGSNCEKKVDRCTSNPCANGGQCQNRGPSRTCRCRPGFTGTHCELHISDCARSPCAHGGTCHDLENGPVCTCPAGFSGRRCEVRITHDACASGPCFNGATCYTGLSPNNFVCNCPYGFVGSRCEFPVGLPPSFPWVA
Binder,Kd,koff,kon
B1,60 nM,0.0056 s⁻¹,94000 M⁻¹ s⁻¹
B2,1.2 nM,0.00029 s⁻¹,250000 M⁻¹ s⁻¹
B3,1.1 nM,0.00031 s⁻¹,270000 M⁻¹ s⁻¹
B4,0.8 nM,0.0002 s⁻¹,270000 M⁻¹ s⁻¹
B5,4.3 nM,0.0015 s⁻¹,350000 M⁻¹ s⁻¹
B6,2.6 nM,0.0013 s⁻¹,500000 M⁻¹ s⁻¹
B7,7.8 nM,0.0027 s⁻¹,350000 M⁻¹ s⁻¹
B8,3.4 nM,0.0016 s⁻¹,470000 M⁻¹ s⁻¹

# Target: T4, recombinant human DLL4 (C-terminally His-tagged extracellular domain, R&D Systems) (human, UniProt Q9NR61 25-522, biotinylated in the competition ELISA)
# T4 construct: also called rhDLL4; hDLL4
# Test: competition ELISA hDLL4/hNotch1-Fc; summary table
row,Binder,IC50
1,B1,10 nM
2,B2,1.3 nM
3,B3,0.9 nM
4,B4,1.2 nM
5,B5,0.9 nM
6,B6,1.4 nM
7,B7,1.5 nM
8,B8,2 nM

# Target: T5, human DLL4 expressed on cells (CHO-hDLL4; HEK293-hDLL4) (human, UniProt Q9NR61 27-685)
# T5 construct: full length human DLL4 overexpressed on CHO cells (FMAT, FACS) or HEK293 cells (reporter assay)
# Test: competition FMAT, labelled hNotch1-Fc on CHO-hDLL4 cells
row,Binder,IC50
1,B1,69.3 nM
2,B2,8.1 nM
3,B3,7.4 nM
4,B4,7.8 nM
5,B5,5.7 nM
6,B6,8 nM
7,B7,6.6 nM
8,B8,5.9 nM

# Target: T2, mouse DLL4 expressed on CHO cells
# Test: competition FMAT CHO-mDLL4; summary table
row,Binder,IC50
1,B1,140 nM
2,B2,12.3 nM
3,B3,14.4 nM
4,B4,11 nM
5,B5,21.2 nM
6,B6,31.2 nM
7,B7,18.6 nM
8,B8,12 nM

# Target: T4, recombinant human DLL4 (C-terminally …)
# Test: SPR (Biacore), rhDLL4
# Procedure: Kinetic analysis to determine the affinity of the DII4-VHH interaction is performed by Surface Plasmon Resonance (SPR) on a Biacore T100 instrument. […] Purified VHHs or Fab fragment are injected for 2 minutes at different concentrations (between 10 and 300 nM) and allowed to dissociate for 20 min at a flow rate of 45 μl/min. Between sample injections, the surfaces are regenerated with 10 mM glycine pH1.5 and 100 mM HCl. HBS-N (Hepes buffer pH7.4) is used as running buffer. If possible, data are evaluated by fitting a 1:1 interaction model (Langmuir binding) onto the binding curves. The affinity constant KD is calculated from resulting association and dissociation rate constants (kₐ) and […].
Binder,Kd,koff,kon
B1,48 nM,0.0023 s⁻¹,48000 M⁻¹ s⁻¹
B2,0.5 nM,9e-05 s⁻¹,190000 M⁻¹ s⁻¹
B3,0.3 nM,7.9e-05 s⁻¹,230000 M⁻¹ s⁻¹
B4,0.4 nM,6.4e-05 s⁻¹,180000 M⁻¹ s⁻¹
B5,1 nM,0.00047 s⁻¹,450000 M⁻¹ s⁻¹
B6,0.6 nM,0.00039 s⁻¹,620000 M⁻¹ s⁻¹
B7,2.1 nM,0.0009 s⁻¹,440000 M⁻¹ s⁻¹
B8,0.8 nM,0.00047 s⁻¹,590000 M⁻¹ s⁻¹

# Target: T5, human DLL4 expressed on cells …
# Test: cell-based or functional assay
row,Binder,"IC50, DLL4-mediated reporter assay"
1,B1,1940 nM
2,B2,98 nM
3,B3,60 nM
4,B4,77 nM
5,B5,18 nM
6,B6,226 nM
7,B7,87 nM
8,B8,104 nM

# Target: T1, cynomolgus DLL4 expressed on CHO cells
# Test: FACS; summary table, column taken as cDLL4
row,Binder,EC50
1,B1,11.2 nM
2,B2,4.2 nM
3,B3,3.9 nM
4,B4,3.8 nM
5,B5,5.1 nM
6,B6,3.5 nM
7,B7,2.3 nM
8,B8,2.7 nM

# Target: T5, human DLL4 expressed on cells …
# Test: FACS; summary table, column taken as hDLL4
row,Binder,EC50
1,B1,17.5 nM
2,B2,10.4 nM
3,B3,9.7 nM
4,B4,9.6 nM
5,B5,14.8 nM
6,B6,10.9 nM
7,B7,7.2 nM
8,B8,8.5 nM

# Target: T5, human DLL4 expressed on cells …
# Test: competition FMAT CHO-hDLL4; summary table
row,Binder,IC50
1,B1,69.3 nM
2,B2,8.1 nM
3,B3,7.4 nM
4,B4,7.8 nM
5,B5,5.7 nM
6,B6,8 nM
7,B7,6.6 nM
8,B8,5.9 nM

# Target: T3, recombinant mouse DLL4 (C-terminally …)
# Test: SPR (Biacore); summary table
row,Binder,Kd
1,B1,60 nM
2,B2,1.2 nM
3,B3,1.1 nM
4,B4,0.8 nM
5,B5,4.3 nM
6,B6,2.6 nM
7,B7,7.8 nM
8,B8,3.4 nM

# Target: T4, recombinant human DLL4 (C-terminally …)
# Test: SPR (Biacore); summary table
row,Binder,Kd
1,B1,48 nM
2,B2,0.5 nM
3,B3,0.3 nM
4,B4,0.4 nM
5,B5,1 nM
6,B6,0.6 nM
7,B7,2.1 nM
8,B8,0.8 nM

# Target: T2, mouse DLL4 expressed on CHO cells
# Test: FACS; summary table, column taken as mDLL4
row,Binder,EC50
1,B2,4.1 nM
2,B3,3.9 nM
3,B4,3.7 nM
4,B5,7 nM
5,B6,8.3 nM
6,B7,1.7 nM
7,B8,2.8 nM

# Target: T5, human DLL4 expressed on cells …
# Test: FACS on CHO-hDLL4 cells
row,Binder,EC50
1,B1,17.5 nM
2,B2,1.4 nM
3,B3,9.7 nM
4,B4,9.6 nM
5,B5,14.8 nM
6,B6,10.9 nM
7,B7,7.2 nM
8,B8,8.5 nM

# Target: T2, mouse DLL4 expressed on CHO cells
# Test: competition FMAT, labelled hNotch1-Fc on CHO-mDLL4 cells
row,Binder,IC50
1,B1,140 nM
2,B2,12.3 nM
3,B3,14.4 nM
4,B4,11 nM
5,B5,21.2 nM
6,B6,31.2 nM
7,B7,18.6 nM
8,B8,12 nM

# Target: T4, recombinant human DLL4 (C-terminally …)
# Test: competition ELISA, biotinylated hDLL4 to coated hNotch1-Fc
row,Binder,IC50
1,B1,10 nM
2,B2,1.3 nM
3,B3,0.9 nM
4,B4,1.2 nM
5,B5,0.9 nM
6,B6,1.4 nM
7,B7,1.5 nM
8,B8,2 nM

# Target: T3, recombinant mouse DLL4 (C-terminally …)
# Test: binding ELISA on coated recombinant mouse DLL4 (Example 5.8, Example 7), OD 450 nm
row,Binder,EC50 (read off the curve)
1,B2,~0.8 nM
2,B3,~0.8 nM
3,B4,~0.8 nM

# Reference: patent US20140120095A1 (Boehringer Ingelheim, published 2014)
